The data set concerns the molecule itself. Put plainly: small angle neutron scattering.

B1: Full-length R67 dihydrofolate reductase (enzyme)
chain: MIRSSNEVSNPVAGNFVFPSNATFGMGDRVRKKSGAAWQGQIVGWYCTNLTPEGYAVESEAHPGSVQIYPVAALERIN
Consider B1, for which the binding result is on record as “binds”.

B2: Chymotrypsin-truncated R67 dihydrofolate reductase (domain or fragment)
chain: VFPSNATFGMGDRVRKKSGAAWQGQIVGWYCTNLTPEGYAVESEAHPGSVQIYPVAALERIN
As for B2, the binding result is listed as “binds”.

The values are drawn from publication PMC5678894 (Biochemistry, 2017).
